We go through five molecules from patent US20090215689A1 (TECNOGEN S P A, published 2009).

In assay [1] the target is T1, Human recombinant FGF2 (Fibroblast growth factor-2) (human, UniProt P09038 134-288, limits assumed). The assay is described as follows: SPR competition (printed as ID50): competitor with FGF2 0.8 µM in the mobile phase over immobilized PTX3. The protocol:
(§1) The response was recorded at the end of injection and plotted as a function of the antagonist concentration.
(§2) A BIAcore X apparatus (BIAcore Inc, Piscataway, N.J.) was used.

In assay [2] the target is T1, Human recombinant FGF2 (Fibroblast …). Description: SPR competition: competitor with FGF2 0.8 µM in the mobile phase over immobilized PTX3.
Source text: as §2

For assay [3] the target is unchanged. Description: solid phase assay: peptide-coated wells (200 µg/well), FGF2 80 nM, detection with anti-FGF2 antibody. The protocol:
as §1
(§3) Then, wells were overcoated for 2 hours at room temperature with 5% dry milk in coating buffer. […] Then, 100 μl/well of the chromogen substrate 2,29-azinobis(3-ethylbenzthiazolinesulfonic acid) were added. Absorbance values were read at 405 nm in an automatic ELISA reader.

Assay [4] shares this target. The assay is described as above. The protocol: as §3
This is another data set of the same source.

Assay [5] has the same target. The assay is described as follows: SPR competition: FGF2 0.8 µM over immobilized PTX3 with the peptide in the mobile phase. The protocol: The response was recorded at the end of injection and plotted as a function of the antagonist concentration. […] The response was recorded at the end of injection and plotted as a function of the antagonist concentration.
as §2

T1 sequence (P09038 134-288 limits assumed): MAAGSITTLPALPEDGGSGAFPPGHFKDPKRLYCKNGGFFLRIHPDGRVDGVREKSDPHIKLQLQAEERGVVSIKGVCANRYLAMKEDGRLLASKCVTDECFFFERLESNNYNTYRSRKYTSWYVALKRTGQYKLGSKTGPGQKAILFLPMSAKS

B1: synthetic peptide PTX3(82-110) (peptide)
peptide: RGELQRLREELGRLAESLARPCAPGAPAE
notes: also called parental peptide PTX3(82-110)
Turning to B1, in assay [1], the IC50 amounted to 30 µM. For the same molecule, the “fold lower potency than free full length PTX3” value in assay [2] was 30 fold.

In the case of RGELQRLREELGRLAESLAR [synthetic peptide PTX3(82-101)], in assay [3], the binding result is listed as “no binding (tested: FGF2 80 nM)”.

DNEIDNGLHPTEDPTPCDCGQEHSEWDKLF [synthetic peptide PTX3(31-60)]: the binding result in assay [4] was “no binding (tested: FGF2 80 nM)”.

As for RGELQRLREELGRLA [synthetic peptide PTX3(82-96)], in assay [5], the binding result is recorded as “no binding (tested: about 3000 µM)”.

With DKLFIMLENSQMRERMLLQATDDVLRGEL [synthetic peptide PTX3(57-85)], the binding result in assay [4] is reported as “no binding (tested: FGF2 80 nM)”.

By IC50 is commonly meant the concentration that gives 50% inhibition.
